The DeepSol protein solubility set

test: soluble on expression in E. coli; label from the status in PepcDB or PDB records

Question: For “MEPWKQCAQWLIHCKVLPTNHRVTWDSAQVFDLAQTLRDGVLLCQLLNNLRAHSINLKEINLRPQMSQFLCLKNIRTFLTACCETFGMRKSELFEAFDLFDVRDFGKVIETLSRLSRTPIALATGIRPFPTEESINDEDIYKGLPDLIDETLVEDEEDLYDCVYGEDEGGEVYEDLMKAEEAHQPKCPENDIRSCCLAEIKQTEEKYTETLESIEKYFMAPLKRFLTAAEFDSVFINIPELVKLHRNLMQEIHDSIVNKNDQNLYQVFINYKERLVIYGQYCSGVESAISSLDYISKSKEDVKLKLEECSKRANNGKFTLRDLLVVPMQRVLKYHLLLQELVKHTTDPTEKANLKLALDAMKDLAQYVNEVKRDNETLREIKQFQLSIENLNQPVLLFGRPQGDGEIRITTLDKHTKQERHIFLFDLAVIVCKRKGDNYEMKEIIDLQQYKIANNPTTDKENKKWSYGFYLIHTQGQNGLEFYCKTKDLKKKWLEQFEMALSNIRPDYADSNFHDFKMHTFTRVTSCKVCQMLLRGTFYQGYLCFKCGARAHKECLGRVDNCGRVNSGEQGTLKLPEKRTNGLRRTPKQVDPGLPKMQVIRNYSGTPPPALHEGPPLQLQAGDTVELLKGDAHSLFWQGRNLASGEVGFFPSDAVKPCPCVPKPVDYSCQPWYAGAMERLQAETELINRVNSTYLVRHRTKESGEYAISIKYNNEAKHIKILTRDGFFHIAENRKFKSLMELVEYYKHHSLKEGFRTLDTTLQFPYKEPEHSAGQRGNRAGNSLLSPKVLGIAIARYDFCARDMRELSLLKGDVVKIYTKMSANGWWRGEVNGRVGWFPSTYVEEDE”, which “soluble on expression in E. coli” value is on record?
Answer: Its value is “soluble”.

Question: Which “soluble on expression in E. coli” value does the source give for “MEQKKKKNIGFNIIKDDPTDGHRGFGAGALSLENVSPVIIDVEAGEAFVDMGAMHARSAVERGIKFLPDRSAVPNGKPYWIVWVTIERREDGPYYAGVTACEMTIDREARRGYKLLPEHVNRLDKSLKRHIIVDHMDAKSKRVLADFLKGHDIGMWNRSSDELKKGLEGEL” here?
Answer: Its value is “not soluble”.

Question: For “MEQLTVQGLVRLMGAGANLVCVVTDNERRTEAIVGQATARLKGAGSPLVWTCTDGFTRDGTVVPGTVDPVAALDHALAHPAPLMTLFKDLSWFWSDNPYVIRKLKEFAVRARGKAAVVLARDESVPAELREDIVVLGQGLPGIGEITAFLGQLKEREPVLAAACAGHPGLMDHLVVAAQGLDLVDIERGVRALRNVPEAAGHEMVRSLFETKQAVIRRSGIMEFVANDTAPEQVGGMENLKAWMERREQAFGLESIASGAALPKGILMMGIAGCGKSLFVKAIAARWRLPLIRLDMAAVYDGSFGTPESSLRKAFRTAEAVAPCVLWIDEIESGISVQGFKAEGGPASRLLGSFLTWMQEKKAPVFVAATANAIEMLPAEIIRKGRFDEVFYVGLPDAGAREDIFRIHLERQKADSARFDVPLLAGSTKGFSGAEIEQAVLSAAFEARADRRTLTQQDVIVAVSRTVPLSVTMAEQIKKIEAWAFKRAVPAAGKF”, which “soluble on expression in E. coli” value is on record?
Answer: Its value is “not soluble”.

Question: With “MEQMRFKPRPFVKPVKFKCKFCLDCCKGRHVYLTLNDIKRLIDAGYDPQDFLTISIEDGKIRFVLSVREWDLGCVFQDPETGLCKVHPHRPLICRIYPFMVSKKPLGIKGEKKFEINGKSFWLYYDENCPGINDEDGDTITPEEILKLGIKFEEELEATDLDGFLKILRSLEHHHHHH” as the sequence, how does the “soluble on expression in E. coli” value read?
Answer: Its value is “soluble”.

Question: Which “soluble on expression in E. coli” value does the source give for “MERSQCGSRDRGVSGRPHLAPGLVVAAPPPPSPALPVPSGMQCARCRNHGVVSALKGHKRFCRWRDCACAKCTLIAERQRVMAAQVALRRQQAQEESEARGLQRLLCSGLSWPPGGRASGGGGRAENPQSTGGPAAGAALGLGALRQASGSATPAFEVFQQDYPEEKQEQKESKCESCQNGQEELISKSHQLYLGSSSRSNGVIGKQSIGSSISEYSNKPDSILSPHPGEQSGGEESPRSLSSSDLESGNESEWVKDLTATKASLPTVSSRPRDPLDILTKIFPNYRRSRLEGILRFCKGDVVQAIEQVLNGKEHKPDNRNLANSEELENTAFQRASSFSLAGIGFGTLGNKSAFSPLQTTSASYGGDSSLYGVNPRVGISPLRLAYSSAGRGLSGFMSPYLTPGLVPTLPFRPALDYAFSGMIRDSSYLSSKDSITCGRLYFRPNQDNP” here?
Answer: Its value is “soluble”.

Question: Which “soluble on expression in E. coli” value does the source give for “MESILITGASGFIGSFIVEEALKRKFGVWAGIRPTSSKKYLKNRKIHFLELDFAHPNELRAQLSGHKGTYNKFDYIIHCAGVTKCPDKNTFDYVNYLQTKYFIDTLKALNMVPKQFIYISTLSVFGPVREKDYSPIEAGDVPMPNTAYGLSKLKAELYIQSIPGFPYVIYRPTGVYGPRELDYFLMAKSIRQHVDFSVGFRRQDLTFVYVKDIVQAIFLGIEKKVTRRAYFLTDGKVYNSRVFSDLIQKELGNPFVIHVKCPLIVLKVISLLAEFIATRSGKSSTLNSDKYKIMKQRNWQCDITPAINELGYAPEYDLEKGVRETIDWYKNEGWL” here?
Answer: Its value is “not soluble”.

Question: Which “soluble on expression in E. coli” value does the source give for “MESVSCSAAAVRTGDMESQRDLSLVPERLQRREQERQLEVERRKQKRQNQEVEKENSHFFVATFARERAAVEELLERAESVERLEEAASRLQGLQKLINDSVFFLAAYDLRQGQEALARLQAALAERRRGLQPKKRFAFKTRGKDAASSTKVDAAPGIPPAVESIQDSPLPKKAEGDLGPSWVCGFSNLESQVLEKRASELHQRDVLLTELSNCTVRLYGNPNTLRLTKAHSCKLLCGPVSTSVFLEDCSDCVLAVACQQLRIHSTKDTRIFLQVTSRAIVEDCSGIQFAPYTWSYPEIDKDFESSGLDRSKNNWNDVDDFNWLARDMASPNWSILPEEERNIQWD” here?
Answer: The value was “soluble”.

Question: With “MESYSQRQDHELQALEAIYGSDFQDLRPDARGRVREPPEINLVLYPQGLAGEEVYVQVELRVKCPPTYPDVVPEIDLKNAKGLSNESVNLLKSHLEELAKKQCGEVMIFELAHHVQSFLSEHNK” as the sequence, how does the “soluble on expression in E. coli” value read?
Answer: Its value is “soluble”.

Question: For “METRKAEGEVIVVGAGLAGLVAAAELADAGRRVLILDQEGEQNLGGQAHWSFGGLFFVDSPEQRRLGIRDSLDLARRDWETAAGFDRPEDHWPRKWAEAYLEFAAGEKREWLHRQGMRWFPAVGWAERGGAGAGLPGNSVPRFHITWGTGPGVLEPFVRRVREHQRAGRIEFRFRHRVRGLTLTAGRVTGVHGDVLEPSDVGRGETSSRVVTGDFELTAQAVLITSGGIGGNHELVRRYWPTERLGPAPEVMLSGVPRHVDGLLQQQVVAQGGSLINPDRMWHYTEGVRNWDPVWPQHGIRILPGPSSLWLDPSGRRLPFPHIPGASSYDTLRHITTHGYPHTWFLLNRAVIKREFGLSGSEQNPDLTGKDLRLTLRRASKHVPGPVQAFMDRGEDFVVRDNLRDLVRGMNELTGGELLDYATVEREVLDRDLQVHNVAGKDAQLAIVRGARAILSERLTRVAKPAPLLDPAQGPLIAVRLSVLTRKSLGGLETDLQGRVIGAGGQPLPDLYAAGEVAGFGGGGYHGYRALEGTFLGGCLFSGRAAGRAIAGAL”, which “soluble on expression in E. coli” value is on record?
Answer: Its value is “not soluble”.

Question: Which “soluble on expression in E. coli” value does the source give for “METSKEFEFRPAKETSRSKSPGGIVGRLSNFARNKARHSLSEKGSNSVGGSGGAGFDKPRKDLLKEFHKCKEAQDQRLDLSSIEITSIPSPIKELTQLTELFLYKNKLTCLPTEIGQLVNLKKLGLSENALTSLPDSLASLESLETLDLRHNKLTEVPSVIYKIGSLETLWLRYNRIVAVDEQIGNLSKLKMLDVRENKIRELPSAIGKLTSLVVCLVSYNHLTRVPEEIGDCHSLTQLDLQHNDLSELPYSIGKLVNLVRIGIRYNKIRCIPSELESCQQLEEFIVESNHLQLLPPNLLTMLPKIHTVNLSRNELTAFPAGGPQQFVSTVTINMEHNQISKIPIGIFSKATRLTKLNLKENELVSLPLDMGSWTSITELNLSTNQLKVLPEDIEKLVNLEILVLSNNQLKKLPNQIGNLNKLRELDLEENELETVPTEIGFLQHLTKLWVQSNKILTLPRSIGNLCSLQDLRLGENNLTAIPEEIGHLDSLKSLYLNDNSSLHNLPFELALCQSLEIMSIENSPLSQIPPEITAGGPSLVIQYLKMQGPYRGVVMNSQ” here?
Answer: The value was “not soluble”.

Question: For “MEVLKLQLRQWQAEKLGEAINALKHGKTLLLNAKPGLGKTVFVEVLGMQLKKKVLIFTRTHSQLDSIYKNAKLLGLKTGFLIGKSASCIYAQGDEEPDEINCSKCRLKDKIKTIEDKEPSKLIEEFKDAVDYCPYYSLRANLKDKDVIAMTYPYLFQKPIRNSVFCNKDDCLKLEDYLIVIDEAHNLLEADKWFTRKISRKMLERALKEIEIVERLNRIDAKKVKDYINLLIDYMSKLIKDGRCHELSLMPLPDRETNGELIVVTRAYLNIDEGPVKKSSLKSLLKFVEMKGDLYNCNGSLVKVPSDVNQLIEDALNVKTFKVLMSGTLPESLTLTNSYKIVVNESYGRGEYYYCPNVTSELRKRNSNIPIYSILLKRIYENSSKSVLVFFPSYEMLESVRIHLSGIPVIEENKKTRHEEVLELMKTGKYLVMLVMRAKESEGVEFREKENLFESLVLAGLPYPNVSDDMVRKRIERLSKLTGKDEDSIIHDLTAIVIKQTIGRAFRDPNDYVKIYLCDSRYREYFADLGISEKEIKLFA”, which “soluble on expression in E. coli” value is on record?
Answer: The value was “soluble”.

Question: For “MEVRGMDTIGHHYIVEAAGCDPNVIGDANKIREIFLEAAKRGNMEVKASYFFKFSPMGVSGVVIVAESHISVHTWPEKGYAALDVYTCGENADPEKAVDYILEQFKAQYAHVSEIKRGIEEEDRTFTHTILTWEERLDRRNGKP”, which “soluble on expression in E. coli” value is on record?
Answer: The value was “soluble”.

Question: For “MEVTVMPAAAPVQKQQGLNQIVINKVQKMIEGKQQGVMATITRLLEEGKIAQDFIAPIGVNLRNEDRHPVITFQAEEQVQMNMPEGNFNLHGNAISQISEKMGIPAKYLRELSAGDAWQKQLCATILNEHSGWTGRTRVLIRAVGTEIRGVLSDSYRRLNSVDILTAFIREAANNGAVVSDAYMNDTKVWCETILPTPVEIPTRKNGTVIIFAGARFSTSDFGNGSVDMRSFLLNGACLNGMVRESVMRQIHLGGRLPDTLALSQRTYELDTKTTVSAVKDLTKGLYSKNTIMQKAIEIQGASEIDVDFDKELKSLVQRGALLKNEGREVEKLLMNNNPDDGITGGATLWKLAQGITAFAREQEPERSRELHEISGQLMNRVKNN”, which “soluble on expression in E. coli” value is on record?
Answer: The value was “not soluble”.

Question: For “MEVVKMPFGVPGWKWKVGKFGYTVENEPNYEEIKAKAKEVLSRTTKGIAWRGHCGSLHIPLVFEGQIIGELWEDADPKEVEIGAYWFGKWGIKVQLVKDGRVIGFIWLA”, which “soluble on expression in E. coli” value is on record?
Answer: Its value is “soluble”.

Question: For “MEWAMNEHHQPFEEIRHYGTEGQEFWSARELAPLLDYRDWRNFQKVLARATQACEASNQAASDHFVETTKMVVLGSGAQRELEDVHLSRYACYLVVQNGDPAKPVIAAGQTYFAIQTRRQELADDEAFKQLREDEKRLFLRNELKEHNKQLVEAAQQAAVATATDFAIFQNHGYQGLYGGLDQKAIHQLKGLKKSQKILDHMGSTELAANLFRATQTEEKLKRDGVNSKQQANTTHFDVGSKVRQTIQELGGTMPEELPTPQVSIKQLENSVKITEKK”, which “soluble on expression in E. coli” value is on record?
Answer: The value was “not soluble”.

Question: Which “soluble on expression in E. coli” value does the source give for “MEWHFSLKEPHVLLFLPFEKYALPYPDPSQSWLSFGLTEIPVPEWTKNLEIITPWRPDFLKFANAQFRCSPEINQTCTHDGALLQLSKYRGFNQNCFLDLLERVKPGGWIIIGGNKTSGADSMMKWVKKIVPITNKFSKNHGLVFWIQVPQQIEKQNTAQLRSPPLTFENKFQTTSGMFSHGRIDPGSAVLASHMCKTISGKTADFGAGWGFLSHAALERSEKLTALDLYEADYNALKAAKQHLKHITTSLPIHFYWHDLVHEPITNLYDTIISNPPFHTQQTTDVSLGQHFIINAAKYLKPGGNLLLVANRHLPYETLLKRLFRTVLIYEKAHGFKVIEAYR” here?
Answer: Its value is “not soluble”.

Question: For “MEYAADGDTVFLESIENMEVTRLDSAIIRNGTFSFKGRQDSTVARYLSCMTATDVFSIPFFLENGHIEVKMKSGNESVTGTPTNDIYQEIRSKMAEIMNKMNEIYSDSTLTEELAEEKMDQMEREYTIAQKEAVKKNIANPVGVFLFKEQYFENSLAENQALFRQIPPKYLNDPVLMGMQKQMESQEKTDMNTPFT”, which “soluble on expression in E. coli” value is on record?
Answer: The value was “not soluble”.
